Entries after “also recorded” stand apart in the source; their conditions may differ.
Tested on: RBC
Assay: Binding to fresh RBC diluted 2500 times, flow cytometry
Conditions: 20 μg ml^−1, FIG. 6f
Procedure: Similarly, fresh RBC cell was diluted 2500 times, then it was incubated with 20 μg ml^−1 isotype control (human IgG1), hu56di-SIRPα, hu56di-CV1, SIRPα-Fc IgG1 and AB6.12 IgG1, respectively. The results were shown in FIG. 6f, in which serial numbers of 1, 2, 3, 4 and 5 correspond to isotype control, hu56di-SIRPα, hu56di-CV1, SIRPα-Fc IgG1 and AB6.12 IgG1.

B1: hu56di-CV1: heterodimer of hu56di-Fc9 and CV1-Fc6, Group 14 (protein)
chain 1: QVQLVESGGGLVQPGGSLRLSCAASGKMSSRRCMAWFRQAPGKERERVAKLLTTSGSTYLADSVKGRFTISRDNSKNTVYLQMNSLRAEDTAVYYCAADSFEDPTCTLVTSSGAFQYWGQGTLVTVSSGAPQVQLVESGGGLVQPGGSLRLSCAASGKMSSRRCMAWFRQAPGKERERVAKLLTTSGSTYLADSVKGRFTISRDNSKNTVYLQMNSLRAEDTAVYYCAADSFEDPTCTLVTSSGAFQYWGQGTLVTVSSEPKSSDKTHTCPPCPAPELLGGPSVFLFPPKPKDTLMISRTPEVTCVVVDVSHEDPEVKFNWYVDGVEVHNAKTKPREEQYNSTYRVVSVLTVLHQDWLNGKEYKCKVSNKALPAPIEKTISKAKGQPREPQVYTLPPCRDELTKNQVSLWCLVKGFYPSDIAVEWESNGQPENNYKTTPPVLDSDGSFFLYSALTVDKSRWQQGNVFSCSVMHEALHNHYTQKSLSLSPGK
chain 2: EEELQIIQPDKSVLVAAGETATLRCTITSLFPVGPIQWFRGAGPGRVLIYNQRQGPFPRVTTVSDTTKRNNMDFSIRIGNITPADAGTYYCIKFRKGSPDDVEFKSGAGTELSVRAKPSGGGGSDKTHTCPPCPAPELLGGPSVFLFPPKPKDTLMISRTPEVTCVVVDVSHEDPEVKFNWYVDGVEVHNAKTKPREEQYNSTYRVVSVLTVLHQDWLNGKEYKCKVSNKALPAPIEKTISKAKGQPREPQVYTLPPSRDELTKNQVSLSCGVKGFYPSDIAVEWESNGQPENNYKTTPPVLDSDGSFKLASKLTVDKSRWQQGNVFSCSVMHEALHNHYTQKSLSLSPGK
- binding to RBC: stronger binding to RBC than hu56di-SIRPα; also recorded: comparable binding to RBC with AB6.12 IgG1

From US11529425B2, “Immunoconjugates comprising signal regulatory protein alpha” (DINGFU BIOTARGET CO., LTD., priority 2017, dated 2022)
